Measured values as given in publication PMC11485400 (Alzheimer's & Dementia, 2024).
Read-outs that look alike come from different tables or passages of the source.

B1: human recombinant PrP^C 23-230 (domain or fragment)
chain: not shown

Key:
Experiment in all cases: SPR
[1] = target: T1, synthetic human Aβ1-42, oligomerised (human, UniProt P05067)
[2] = target: T2, synthetic human Aβ1-40, oligomerised (human, UniProt P05067)
[3] = target: B1
[4] = target: T1, synthetic human Aβ1-42, oligomerised; remark: listed apart in the source
[5] = target: T2, synthetic human Aβ1-40, oligomerised; remark: listed apart in the source

| Binder | Kd [1] [nM] | Kd [2] [nM] | Kd [3] [nM] | Kd [4] [nM] | Kd [5] [nM] |
| --- | --- | --- | --- | --- | --- |
| B1 | 11.3 | 28.8 | – | – | – |
| caveolin-1 (Cav-1) (natural protein) MSGGKYVDSEGHLYTVPIREQGNIYKPNNKAMADELSEKQVYDAHTKEIDLVNRDPKHLNDDVVKIDFEDVIAEPEGTHSFDGIWKASFTTFTVTKYWFYRLLSALFGIPMALIWGIYFAILSFLHIWAVVPCIKSFLIEIQCISRVYSIYVHTVCDPLFEAVGKIFSNVRINLQKEI | – | – | 14.1 | 13 | 11.4 |
